The record followed here is patent EP4748847A1, “PEPTIDE COMPLEX HAVING VEGFR -2 AGONIST ACTIVITY” (Peptidream Inc, priority 2023, dated 2025).

In experiment [1] the target is T1, VEGFR-2 (Homo sapiens, UniProt P35968).
T1 construct: endogenous in cells; host or cells: HUVEC
The experiment is described as follows: pVEGFR AlphaLISA assay (VEGFR-2 phosphorylation, p-Tyr1175) in HUVECs. The format is cell-based. Conditions: 10 minutes stimulation, % activity, maximum VEGF165a signal = 100%, unstimulated = 0%, peptide 10, 100 nM (dimer structures 2-41). The method, then: To evaluate the VEGFR-2 activation ability of the VEGFR-2 agonist peptides of the present invention, VEGFR-2 phosphorylation was verified. HUVECs were cultured using EGM™ -2 Endothelial Cell Growth Medium-2 BulletKit (LONZA; CC-3162). After detaching cells using Tryple (Thermo Fisher Scientific), they were seeded into a 96-well PDL-coated plate (Corning: 354461) at a density of 24,000 cells per well and cultured for 2 days. For starvation, the medium was replaced with EBM-2 medium (LONZA) containing 0.5% FBS (Thermo Fisher Scientific), 0.1% heparin (included with the above LONZA CC-3162), and 0.1% gentamicin (Nacalai), and the cells were cultured for 18 hours. Subsequently, Recombinant Human VEGF165a Protein (R&D Systems) or the peptide was added, and the cells were cultured in a CO2 incubator at 37°C. After 10 minutes of stimulation, cells were lysed using the Lysis Buffer included in the AlphaLISA SureFire Ultra VEGFR-2 (p-Tyr1175) Assay Kit (PerkinElmer) to lyse the cells. The procedure was performed according to the kit protocol, and signal detection was performed using a SpectraMax Paradigm multimode microplate reader (Molecular Devices). The obtained signals were analyzed using GraphPad Prism, and % activity was calculated with the maximum signal induced by VEGF165a set as 100% and the unstimulated control as 0%.
The VEGF165a concentration was evaluated at five points (0.08, 0.31, 1.25, 5, 20 nM) using 1/4-fold dilutions starting from 20 nM to determine the maximum value (100%). Peptide concentrations tested were: 3.2, 16, 80 nM for dimer structure number 1; 10, 100 nM for dimer structures numbers 2-41; and 1.25, 5, 20 nM for dimer structures numbers 42-57. […]
Peptides showing 50% or more activity at 10 nM were designated 2-A, those showing 50% or more activity at 100 nM were designated 2-B, and those showing 1% or more but less than 50% activity at 100 nM were designated 2-C.
Peptides showing 50% or more activity at 1.25 nM were designated 3-A, those showing 50% or more activity at 5 nM were designated 3-B, those showing 50% or more activity at 20 nM were designated 3-C, and those showing 1% or more but less than 50% activity at 20 nM were designated 3-D.

Experiment [2] concerns the target T2, VEGFR-2 (human, UniProt P35968 20-1356). The experiment is described as follows: cell-based or functional assay.
Experiment [3] deals with T2, VEGFR-2. The experiment is described as follows: cell-based or functional assay. The source holds these as a separate data set.

*1 amine or outer side, *2 acyl side, *3 side chain or, on linkers, in order; H or OH if unused. Where a SMILES comes first, the peptide text is derived from it. Bridges are numbered along the chain shown (N, C = ends). Roman numbers before positions name the chains, in order. Where no end group is shown, it is not given here. [ ]: non-standard residue; d: D form. The star is where a group is joined. CO(CH2)2(OCH2CH2)17CO = O=C(CCOCCOCCOCCOCCOCCOCCOCCOCCOCCOCCOCCOCCOCCOCCOCCOCCOCCC(=O)[*:2])[*:1]; CO(CH2CH2O)9CH2CH2CO = O=C(CCOCCOCCOCCOCCOCCOCCOCCOCCOCCC(=O)[*:2])[*:1]; PEG12 = NCCOCCOCCOCCOCCOCCOCCOCCOCCOCCOCCOCCOCCC(=O)O; Phe(4-guanidino) = N=C(N)Nc1ccc(C[C@H](N)C(=O)O)cc1; hTyr = N[C@@H](CCc1ccc(O)cc1)C(=O)O; Cha = N[C@@H](CC1CCCCC1)C(=O)O; Chg = N[C@H](C(=O)O)C1CCCCC1; Tle = CC(C)(C)[C@H](N)C(=O)O; Carboxymethyl = O=C(O)C*

T2 sequence (P35968 20-1356): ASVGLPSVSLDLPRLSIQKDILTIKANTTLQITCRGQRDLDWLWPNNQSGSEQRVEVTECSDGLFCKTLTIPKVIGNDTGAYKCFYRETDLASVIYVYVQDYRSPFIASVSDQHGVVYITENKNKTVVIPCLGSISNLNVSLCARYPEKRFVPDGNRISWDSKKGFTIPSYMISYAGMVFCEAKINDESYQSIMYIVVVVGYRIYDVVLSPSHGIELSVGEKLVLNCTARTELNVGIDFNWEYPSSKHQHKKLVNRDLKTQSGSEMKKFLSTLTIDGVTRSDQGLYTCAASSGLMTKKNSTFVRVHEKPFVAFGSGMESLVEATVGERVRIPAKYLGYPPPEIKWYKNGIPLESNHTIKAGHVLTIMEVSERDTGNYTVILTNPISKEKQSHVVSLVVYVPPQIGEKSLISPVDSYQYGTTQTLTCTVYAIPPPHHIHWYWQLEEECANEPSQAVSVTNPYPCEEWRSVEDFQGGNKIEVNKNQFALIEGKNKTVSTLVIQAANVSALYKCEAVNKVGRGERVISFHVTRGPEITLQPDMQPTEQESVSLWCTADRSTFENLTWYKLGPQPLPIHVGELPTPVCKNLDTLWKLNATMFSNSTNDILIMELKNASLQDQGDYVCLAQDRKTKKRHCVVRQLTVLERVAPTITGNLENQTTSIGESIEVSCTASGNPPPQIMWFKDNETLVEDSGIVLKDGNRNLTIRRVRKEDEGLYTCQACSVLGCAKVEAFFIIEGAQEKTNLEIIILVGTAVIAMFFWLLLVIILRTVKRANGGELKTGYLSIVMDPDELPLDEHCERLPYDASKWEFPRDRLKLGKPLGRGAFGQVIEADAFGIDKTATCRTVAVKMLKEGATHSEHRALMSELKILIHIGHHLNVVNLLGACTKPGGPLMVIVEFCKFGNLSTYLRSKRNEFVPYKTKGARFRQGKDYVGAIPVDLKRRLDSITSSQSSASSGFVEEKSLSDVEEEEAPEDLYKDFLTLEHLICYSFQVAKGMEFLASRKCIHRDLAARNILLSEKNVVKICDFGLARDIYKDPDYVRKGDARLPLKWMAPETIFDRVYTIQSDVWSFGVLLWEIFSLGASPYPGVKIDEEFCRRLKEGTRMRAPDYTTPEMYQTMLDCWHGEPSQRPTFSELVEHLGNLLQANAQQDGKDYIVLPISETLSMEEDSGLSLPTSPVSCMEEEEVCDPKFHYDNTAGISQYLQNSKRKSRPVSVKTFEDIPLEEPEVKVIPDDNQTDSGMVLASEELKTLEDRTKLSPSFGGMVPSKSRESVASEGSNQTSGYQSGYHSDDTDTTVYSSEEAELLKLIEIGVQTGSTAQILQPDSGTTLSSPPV
T1 sequence (P35968 20-1356): as above

In the case of `CC(C)C[C@@H]1NC(=O)[C@H](CC(=O)O)NC(=O)[C@H](CC(=O)O)NC(=O)[C@H](CCCCNC(=O)CCOCCOCCOCCOCCOCCOCCOCCOCCOCCOCCOCCOCCOCCOCCOCCOCCOCCC(=O)NCCCC[C@@H]2NC(=O)[C@H](C(C)C)NC(=O)[C@H](CC(=O)O)NC(=O)[C@H](C(C)(C)C)NC(=O)[C@H](Cc3c[nH]c4ccccc34)NC(=O)[C@H](Cc3c[nH]c4ccccc34)NC(=O)CSC[C@@H](C(=O)NCC(N)=O)NC(=O)[C@H](CC(=O)O)NC(=O)[C@H](C(C)C)NC(=O)[C@H](Cc3ccc(NC(=N)N)cc3)NC(=O)[C@H](Cc3ccc(O)cc3)NC(=O)[C@H](CC(C)C)NC(=O)[C@H](CC(=O)O)NC(=O)[C@H](CC(=O)O)NC2=O)NC(=O)[C@H](C(C)C)NC(=O)[C@H](CC(=O)O)NC(=O)[C@H](C(C)(C)C)NC(=O)[C@H](Cc2c[nH]c3ccccc23)NC(=O)[C@H](Cc2c[nH]c3ccccc23)NC(=O)CSC[C@@H](C(=O)NCC(N)=O)NC(=O)[C@H](CC(=O)O)NC(=O)[C@H](C(C)C)NC(=O)[C@H](Cc2ccc(NC(=N)N)cc2)NC(=O)[C@H](Cc2ccc(O)cc2)NC1=O` [Dimer Structure No. 43] (I: {CH2CO}-WW[Tle]DVKDDLY[Phe(4-guanidino)]VDCG-NH2 / II: {CH2CO}-WW[Tle]DVKDDLY[Phe(4-guanidino)]VDCG-NH2; linker I:6-II:6 via CO(CH2)2(OCH2CH2)17CO; thioether I:N-I:14, II:N-II:14), at VEGFR-2 [1], the “pVEGFR2 Assay Results” value is given as 2-C (1% or more but less than 50% activity at 100 nM).

Regarding `CC(C)C[C@@H]1NC(=O)[C@H](CC(=O)O)NC(=O)CNC(=O)[C@H](CCC(N)=O)NC(=O)[C@H](C(C)C)NC(=O)[C@H](CC(=O)O)NC(=O)[C@H](C(C)C)NC(=O)[C@H](Cc2c[nH]c3ccccc23)NC(=O)[C@H](Cc2c[nH]c3ccccc23)NC(=O)CSC[C@@H](C(=O)NCC(=O)NCCOCCOCCOCCOCCOCCOCCOCCOCCOCCOCCOCCOCCC(=O)NCCCC[C@H](NC(=O)CCOCCOCCOCCOCCOCCOCCOCCOCCOCCOCCOCCOCCNC(=O)CNC(=O)[C@@H]2CSCC(=O)N[C@@H](Cc3c[nH]c4ccccc34)C(=O)N[C@@H](Cc3c[nH]c4ccccc34)C(=O)N[C@@H](C(C)C)C(=O)N[C@@H](CC(=O)O)C(=O)N[C@@H](C(C)C)C(=O)N[C@@H](CCC(N)=O)C(=O)NCC(=O)N[C@@H](CC(=O)O)C(=O)N[C@@H](CC(C)C)C(=O)N[C@@H](Cc3ccc(O)cc3)C(=O)N[C@@H](Cc3ccccc3)C(=O)N[C@@H](C(C)C)C(=O)N[C@@H](CC(=O)O)C(=O)N2)C(N)=O)NC(=O)[C@H](CC(=O)O)NC(=O)[C@H](C(C)C)NC(=O)[C@H](Cc2ccccc2)NC(=O)[C@H](Cc2ccc(O)cc2)NC1=O` [compound 7] (I: {CH2CO}-WWVDVQGDLYFVDCG[PEG12]K-NH2 / II: {CH2CO}-WWVDVQGDLYFVDCG[PEG12]; amide I:17-II:C; thioether I:N-I:14, II:N-II:14), the “pVEGFR2 Assay Results” value on VEGFR-2 [1] is 2-C (1% or more but less than 50% activity at 100 nM).

With `CC(C)C[C@@H]1NC(=O)[C@H](CC(=O)O)NC(=O)[C@H](CC(=O)O)NC(=O)[C@H](CCC(N)=O)NC(=O)[C@H](C(C)C)NC(=O)[C@H](CC(=O)O)NC(=O)[C@H](C(C)C)NC(=O)[C@H](Cc2c[nH]c3ccccc23)NC(=O)[C@H](Cc2c[nH]c3ccccc23)NC(=O)CSC[C@@H](C(=O)NCC(=O)NCCOCCOCCOCCOCCOCCOCCOCCOCCOCCOCCOCCOCCC(=O)NCCCC[C@H](NC(=O)CCOCCOCCOCCOCCOCCOCCOCCOCCOCCOCCOCCOCCNC(=O)CNC(=O)[C@@H]2CSCC(=O)N[C@@H](Cc3c[nH]c4ccccc34)C(=O)N[C@@H](Cc3c[nH]c4ccccc34)C(=O)N[C@@H](C(C)C)C(=O)N[C@@H](CC(=O)O)C(=O)N[C@@H](C(C)C)C(=O)N[C@@H](CCC(N)=O)C(=O)N[C@@H](CC(=O)O)C(=O)N[C@@H](CC(=O)O)C(=O)N[C@@H](CC(C)C)C(=O)N[C@@H](Cc3ccc(O)cc3)C(=O)N[C@@H](Cc3ccccc3)C(=O)N[C@@H](C(C)C)C(=O)N[C@@H](CO)C(=O)N2)C(N)=O)NC(=O)[C@H](CO)NC(=O)[C@H](C(C)C)NC(=O)[C@H](Cc2ccccc2)NC(=O)[C@H](Cc2ccc(O)cc2)NC1=O` [compound 11] (I: {CH2CO}-WWVDVQDDLYFVSCG[PEG12]K-NH2 / II: {CH2CO}-WWVDVQDDLYFVSCG[PEG12]; amide I:17-II:C; thioether I:N-I:14, II:N-II:14), the “pVEGFR2 Assay Results” value at VEGFR-2 [1] is recorded as 2-C (1% or more but less than 50% activity at 100 nM).

In the case of `CC(C)C[C@@H]1NC(=O)[C@H](CC(=O)O)NC(=O)[C@H](CC(=O)O)NC(=O)[C@H](CCCCNC(=O)CCOCCOCCOCCOCCOCCOCCOCCOCCOCCOCCOCCOCCOCCOCCOCCOCCOCCC(=O)NCCCC[C@@H]2NC(=O)[C@H](C(C)C)NC(=O)[C@H](CC(=O)O)NC(=O)[C@H](C(C)(C)C)NC(=O)[C@H](Cc3c[nH]c4ccccc34)NC(=O)[C@H](Cc3ccc(OCC(=O)O)cc3)NC(=O)CSC[C@@H](C(=O)NCC(N)=O)NC(=O)[C@H](CC(=O)O)NC(=O)[C@H](CCc3ccc(O)cc3)NC(=O)[C@H](Cc3ccccc3)NC(=O)[C@H](Cc3ccc(O)cc3)NC(=O)[C@H](CC(C)C)NC(=O)[C@H](CC(=O)O)NC(=O)[C@H](CC(=O)O)NC2=O)NC(=O)[C@H](C(C)C)NC(=O)[C@H](CC(=O)O)NC(=O)[C@H](C(C)(C)C)NC(=O)[C@H](Cc2c[nH]c3ccccc23)NC(=O)[C@H](Cc2ccc(OCC(=O)O)cc2)NC(=O)CSC[C@@H](C(=O)NCC(N)=O)NC(=O)[C@H](CC(=O)O)NC(=O)[C@H](CCc2ccc(O)cc2)NC(=O)[C@H](Cc2ccccc2)NC(=O)[C@H](Cc2ccc(O)cc2)NC1=O` [compound 24] (I: {CH2CO}-Y(Carboxymethyl)W[Tle]DVKDDLYF[hTyr]DCG-NH2 / II: {CH2CO}-Y(Carboxymethyl)W[Tle]DVKDDLYF[hTyr]DCG-NH2; linker I:6-II:6 via CO(CH2)2(OCH2CH2)17CO; thioether I:N-I:14, II:N-II:14), at VEGFR-2 [1], the “pVEGFR2 Assay Results” value is 2-B (50% or more activity at 100 nM).

On to {CH2CO}-WWVDVK(CO(CH2CH2O)9CH2CH2CO)DDLYFVDCG-NH2 (thioether N-14; also: dimer: Lys6 joined to Lys6 of second copy by cPEG9c) [Peptide complex Dimer Structure No. 13], for which the “pERK Assay Results (AlphaLISA p-Erk1/2, HUVEC)” value with VEGFR-2 [2] is not below 50 % activity at 10 nM. The “proliferation (HUVEC, CellTiter-Glo)” value with VEGFR-2 [3] was less than 50 % activity at 100 nM.

B1: Peptide complex Dimer Structure No. 25 (peptide)
peptide: {CH2CO}-WW[Chg]DVKDDLYF[hTyr]DCG-NH2
modifications: thioether N-14; not fully specified (residue 6); also: homodimer: Lys6 joined to Lys6 of second copy by cPEG17c (Linker Structure No. 4)
B1: the “pERK Assay Results (AlphaLISA p-Erk1/2, HUVEC)” value in the experiment with VEGFR-2 [2] is not below 50 % activity at 10 nM. Moreover, the “proliferation (HUVEC, CellTiter-Glo)” value in the experiment with VEGFR-2 [3] is not below 50 % activity at 10 nM.

B2: Peptide complex Dimer Structure No. 5 (peptide)
peptide: {CH2CO}-WWVDV[Cha]DDLYFVDCG
modifications: thioether N-14; also: dimer: C-terminus joined to second copy by PEG12c-K-PEG12c
B2: in the experiment with VEGFR-2 [2], the “pERK Assay Results (AlphaLISA p-Erk1/2, HUVEC)” value is not below 50 % activity at 10 nM. Further, the “proliferation (HUVEC, CellTiter-Glo)” value with VEGFR-2 [3] was less than 50 % activity at 100 nM.

B3: Peptide complex Dimer Structure No. 14 (peptide)
peptide: {CH2CO}-WWVDVKDDLYFVDCG-NH2
modifications: thioether N-14; not fully specified (residue 6); also: homodimer: Lys6 joined to Lys6 of second copy by cPEG13c (Linker Structure No. 3)
As for B3, the “pERK Assay Results (AlphaLISA p-Erk1/2, HUVEC)” value with VEGFR-2 [2] was not below 50 % activity at 10 nM. Besides, the “proliferation (HUVEC, CellTiter-Glo)” value in the experiment with VEGFR-2 [3] was less than 50 % activity at 100 nM.
